Assay results: patent US20220073608A1 (JIANGSU HUAIYU PHARMACEUTICAL, published 2022)
Numbering of substitutions follows the chain as printed.

Experiments:
[1] = biological target: T1, human SEMA4D, full length, on CHO-K1 cells (CHO-K1 hSEMA4D) (human, UniProt Q92854 22-862); experiment: competitive FACS, CHO-K1 hSEMA4D cells; unlabelled Ab 6 ug/mL first, competitor Alexa 488-VX15 0.67 ug/mL
T1 construct: whole, on cells; also called human SEMA4D recombinant cells
T1 sequence (looked up): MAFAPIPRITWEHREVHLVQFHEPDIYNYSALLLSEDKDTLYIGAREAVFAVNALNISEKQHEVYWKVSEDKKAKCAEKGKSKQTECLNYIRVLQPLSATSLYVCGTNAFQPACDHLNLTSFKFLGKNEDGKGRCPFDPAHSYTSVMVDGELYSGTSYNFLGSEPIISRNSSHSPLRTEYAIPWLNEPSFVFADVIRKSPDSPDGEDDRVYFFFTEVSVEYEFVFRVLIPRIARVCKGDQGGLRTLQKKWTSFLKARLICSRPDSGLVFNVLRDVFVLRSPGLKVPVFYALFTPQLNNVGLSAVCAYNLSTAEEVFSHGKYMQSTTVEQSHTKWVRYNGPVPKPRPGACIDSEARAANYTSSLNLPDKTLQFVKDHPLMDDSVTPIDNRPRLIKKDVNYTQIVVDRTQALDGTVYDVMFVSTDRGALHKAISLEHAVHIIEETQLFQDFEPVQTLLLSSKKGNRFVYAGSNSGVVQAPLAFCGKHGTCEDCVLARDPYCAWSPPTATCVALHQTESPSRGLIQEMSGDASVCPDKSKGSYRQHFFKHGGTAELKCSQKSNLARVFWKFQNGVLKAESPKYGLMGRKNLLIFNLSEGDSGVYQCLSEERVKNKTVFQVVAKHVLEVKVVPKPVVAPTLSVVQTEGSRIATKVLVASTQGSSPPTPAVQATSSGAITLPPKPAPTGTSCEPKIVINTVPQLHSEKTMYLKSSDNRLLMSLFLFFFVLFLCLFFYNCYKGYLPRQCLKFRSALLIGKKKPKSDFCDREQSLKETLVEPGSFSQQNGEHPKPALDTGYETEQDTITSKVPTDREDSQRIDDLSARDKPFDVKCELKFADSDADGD
Source text: The purified hybridoma SEMA4D antibodies and fully human SEMA4D antibody were subjected to competitive flow cytometry (FACS) to analyze whether the epitopes bound by different antibodies competed with that bound by the reference antibody VX15.
(§1) The medium was aspirated, the cells were washed once with PBS buffer (purchased from Invitrogen), and then treated with cell dissociation fluid (TrypLE™ Express Enzyme, purchased from Life technology), and the cells were collected. After the cells counted, the cells were washed once with PBS phosphate buffer, and diluted to 3×10⁶ cells per milliliter, and added to the 96-well FACS reaction plate as 100 μL per well. 2% (w/w) fetal calf serum was added to PBS phosphate buffer as FACS buffer, with which the cells were washed once by centrifugation at 2000 rpm 4° C. 100 μL of the leading antibodies and IgG control diluted to a concentration of 6 μg/mL was added to each well and the plate was incubated for 1 hour on ice. […] Cells were washed 2 times by centrifugation with FACS buffer. The cells were suspended with 200 μL of FACS buffer, and FACS (FACS Verse, purchased from BD) was used to detect and analyze the results.

[2] = biological target: T2, biotinylated hSEMA4D ECD-His (human, UniProt Q92854 22-734, biotinylated with Biotin-X-X-NHS at a molar ratio of 8:1; sites not stated); experiment: FACS, blocking of biotinylated hSEMA4D ECD-His binding to 293F hPlexin B1 cells; Ab 13.3 nM
T2 construct: also called biotinylated immunogen; not shown: His tag of the pCP vector
T2 sequence: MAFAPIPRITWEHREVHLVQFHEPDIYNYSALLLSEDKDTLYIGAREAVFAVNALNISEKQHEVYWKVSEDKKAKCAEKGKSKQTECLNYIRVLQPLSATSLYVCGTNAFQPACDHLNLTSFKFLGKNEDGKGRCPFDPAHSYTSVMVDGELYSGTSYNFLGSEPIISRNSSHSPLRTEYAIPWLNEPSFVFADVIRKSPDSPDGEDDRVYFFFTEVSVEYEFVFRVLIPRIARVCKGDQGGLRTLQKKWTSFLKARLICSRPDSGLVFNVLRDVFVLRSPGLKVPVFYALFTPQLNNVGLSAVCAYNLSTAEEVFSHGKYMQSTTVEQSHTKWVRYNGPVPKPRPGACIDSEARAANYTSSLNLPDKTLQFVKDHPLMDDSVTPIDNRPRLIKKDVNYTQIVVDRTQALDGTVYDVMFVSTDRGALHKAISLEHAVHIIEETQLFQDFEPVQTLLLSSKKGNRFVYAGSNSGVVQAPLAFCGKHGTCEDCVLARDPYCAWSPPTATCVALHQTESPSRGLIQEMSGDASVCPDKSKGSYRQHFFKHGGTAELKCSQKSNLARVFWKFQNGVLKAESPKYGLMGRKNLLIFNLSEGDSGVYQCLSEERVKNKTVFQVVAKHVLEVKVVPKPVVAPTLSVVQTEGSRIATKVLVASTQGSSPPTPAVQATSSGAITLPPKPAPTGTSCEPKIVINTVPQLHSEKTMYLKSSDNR
Description: as §1, with “1×10⁶” for “3×10⁶”, “C. Meanwhile, the purified leading antibody and biotinylated hSEMA4D ECD-His were mixed and incubated on ice for 30 minutes. Then” for “C.”, “mixture” for “leading antibodies and IgG control diluted to a concentration of 6 μg/mL”, “incubated on ice” for “incubated”, “hour.” for “hour on ice.”, “results. The results are shown in FIGS. 11A-11B and Tables 20-21.” for “results.”

[3] = biological target: T2, biotinylated hSEMA4D ECD-His; experiment: FACS, blocking of biotinylated hSEMA4D ECD-His binding to 293F hPlexin B1 cells; Ab 0.534 nM
Description: as §1, with “1×10⁶” for “3×10⁶”, “C. Meanwhile, the purified leading antibody and biotinylated hSEMA4D ECD-His were mixed and incubated on ice for 30 minutes. Then” for “C.”, “mixture” for “leading antibodies and IgG control diluted to a concentration of 6 μg/mL”, “incubated on ice” for “incubated”, “hour.” for “hour on ice.”, “results. The results are shown in FIGS. 11A-11B and Tables 20-21.” for “results.”

[4] = biological target: T2, biotinylated hSEMA4D ECD-His; experiment: FACS, blocking of biotinylated hSEMA4D ECD-His binding to 293F hPlexin B1 cells; Ab 0.0213 nM
Description: as §1, with “1×10⁶” for “3×10⁶”, “C. Meanwhile, the purified leading antibody and biotinylated hSEMA4D ECD-His were mixed and incubated on ice for 30 minutes. Then” for “C.”, “mixture” for “leading antibodies and IgG control diluted to a concentration of 6 μg/mL”, “incubated on ice” for “incubated”, “hour.” for “hour on ice.”, “results. The results are shown in FIGS. 11A-11B and Tables 20-21.” for “results.”

B1: 37F11F9 (antibody, V domains shown)
VH: EVQLQQSGPVLVKPGASVKMSCKASGYTFTDYYMNWVKQSHGKSLEWIGLINPYSGGSTFNQKFKAKATLTVDKSSSSAYMDLNSLTSEDSAVYYCARVGDGYYGVTHGMDYWGQGTSVTVSS
VL: DIVMTPSQKFMSTTVGDRVSITCKASQNVGTAVAWYQQKPGQSPTILIYSASNRYTGVPDRFTGSGSGTDFTLTISNMKSEDLADYFCQQYYIYPFTFAAGTKLELK
notes: Mouse monoclonal antibody purified from hybridoma supernatant on protein A
[1]
  inhibition rate (%): 25%

B2: 32C8F10 (antibody, V domains shown)
VH: EVQLQQSGAELVRPGASVKLSCTASGFNIKDEYIHWVKQRPEQGLEWIGWIDPANGHTEYASRFQAKATITADTSSNTAYLQLSSLTSEDTAVYYCTTGDYDGFAYWGQGTLVTVST
VL: QIVLTQSPAIMSASPGEKVTISCSARSSVSYMYWYQQKPGSSPKPWIYRTSNLASGVPARFSGSGSGTSYSLTISSMEAEDAATYYCQHYHTYPYTFGGGTKLEIK
notes: as for B1
[2]
  MFI (residual ligand binding): 204
[3]
  MFI (residual ligand binding): 420
[4]
  MFI (residual ligand binding): 463
[1]
  inhibition rate (%): 42%

B3: 31G10C5 (antibody, V domains shown)
VH: B2 VH with E32D, T58I, R63N, A105T
VL: B2 VL
notes: as for B1
[2]
  MFI (residual ligand binding): 209
[3]
  MFI (residual ligand binding): 427
[4]
  MFI (residual ligand binding): 466
[1]
  inhibition rate (%): 42%

B4: 31C11G2 (antibody, V domains shown)
VH: B2 VH with A105V
VL: B2 VL with S22F
notes: as for B1
[2]
  MFI (residual ligand binding): 266
[3]
  MFI (residual ligand binding): 513
[4]
  MFI (residual ligand binding): 547
[1]
  inhibition rate (%): 44%

B5: 42B7G2 (antibody, V domains shown)
VH: QVQLQQSGAELARPGASVKLSCKASGYTFTDYGISWVKQRTGQGLEWIGEIYLRNDNSYYNEKFKGKATLTADKSSNTAYMELRSLTSEDSAVYFCARWGDHGNNYEDAMDYWGQGTSVTVSS
VL: DIVLTQSPASLAMSLGKRATISCRASESVSIIGSNLIHWYQQKPGQPPKLLIYHASNLETGVPARFSGSGSRTDFTLTIDPVEEDDVAIYYCLQSRKVPYTFGGGTKLEIK
notes: as for B1
[1]
  inhibition rate (%): 15%

B6: 37C4F7 (antibody, V domains shown)
VH: EFQLQQSGPEVVKPGASVKISCKASGYSFTDYNMNWMKQSKGKSLEWIGVINPNYGTTTYNQNFKGKATLTVDQSSSTAYMQLNSLTSEDSAVYYCARDMYYVYAYYTMDYWGQGTSVTVSS
VL: DVVMTQTPLSLPVSLGDQASISCRSSQSLVHSNGHTYLHWYLQRPGQSPTLLIYKVSNRFSGVPDRFSGSGSGTDFTLKISRVEAEDLGVYFCSQGTHVPWTFGGGTKLEIK
notes: as for B1
[1]
  inhibition rate (%): 20%

B7: 38H2E3 (antibody, V domains shown)
VH: B6 VH with N52S, N54D, G66D, R98K, Q114H
VL: B6 VL with F67V, W101R
notes: as for B1
[1]
  inhibition rate (%): 21%
